This note sets out measurements from article PMC5523735.

Series [1] can be described thus: proBNP/BNP ratio in NRVM medium. The note with it: glycan lost.
Series [2] is described as follows: proBNP/BNP ratio in human iPS-CM medium. The note with it: glycan lost; control: control oligo.
The nature of series [3]: gel filtration: proBNP peak relative to mature BNP peak. The note with it: glycan lost; control: WT-proBNP.
A short description of series [4]: proBNP/BNP ratio in cardiac fibroblast medium. To be noted: glycan lost; control: WT-proBNP.
[5] abbreviates: control: control oligo, WT-proBNP.

Where two headings read alike, the source gives them in different places.

For the substance “human proBNP (prohormone for brain natriuretic peptide): GALNT1 siRNA”, the “other: proteolytic processing” value in series [1] (setting [5]) and in series [2] was “increases” in each case.
For the substance “human proBNP (prohormone for brain natriuretic peptide): GALNT2 siRNA”, the “other: proteolytic processing” value in series [1] (setting [5]) and in series [2] was “increases” throughout.
Turning to “human proBNP (prohormone for brain natriuretic peptide): T48/T71glyco”, the “other: proteolytic processing” value in series [1] (control: WT-proBNP) is recorded as “increases”.
As for “human proBNP (prohormone for brain natriuretic peptide): T48A”, the “other: proteolytic processing” value in series [3], in series [1] (control: WT-proBNP) and in series [4] was “increases” in each case.
Consider “human proBNP (prohormone for brain natriuretic peptide): T48A/T71A”, for which the “other: proteolytic processing” value in series [1] (control: WT-proBNP) is “increases”.
Consider “human proBNP (prohormone for brain natriuretic peptide): T71A”, for which the “other: proteolytic processing” value in series [3], in series [1] (control: WT-proBNP) and in series [4] was “increases” in each case.
As to “human proBNP (prohormone for brain natriuretic peptide): non-glyco”, in series [1] (control: WT-proBNP), the “other: proteolytic processing” value is recorded as “increases”.
For “proBNP (prohormone for brain natriuretic peptide): GALNT1 or GALNT2 siRNA knockdown”, the other result is, setting by setting: (O-glycosylation other at T48) “increases”; (O-glycosylation other at T71) “increases”.
Consider “proBNP (prohormone for brain natriuretic peptide): T48/T71glyco (T36A, S37A, S44A, S53A, T58A)”, for which the other entry (O-glycosylation other at S37) is given as “increases”; the other result (O-glycosylation other at S44) is reported as “increases”; the other entry (O-glycosylation other at S53) is “increases”; the other result (O-glycosylation other at T36) is on record as “increases”; the other result (O-glycosylation other at T58) is recorded as “increases”.
With “proBNP (prohormone for brain natriuretic peptide): T48A”, the other entry (O-glycosylation other at T48) is “increases”.
“proBNP (prohormone for brain natriuretic peptide): T48A (cardiac fibroblasts)”: the other entry (O-glycosylation other at T48) is “increases”.
Regarding “proBNP (prohormone for brain natriuretic peptide): T48A/T71A”, the other entry is recorded as “increases” (O-glycosylation other at T48) and “increases” (O-glycosylation other at T71).
Regarding “proBNP (prohormone for brain natriuretic peptide): T71A”, for the setting “O-glycosylation other at T71”, the other entry is “increases”.
Consider “proBNP (prohormone for brain natriuretic peptide): T71A (cardiac fibroblasts)”, for which, for the setting “O-glycosylation other at T71”, the other entry is “increases”.
With “proBNP (prohormone for brain natriuretic peptide): non-glyco versus T48glyco (only Thr48 preserved, other 6 sites Ala)”, the other result (O-glycosylation other at T48) was “increases”.
Consider “proBNP (prohormone for brain natriuretic peptide): non-glyco versus T71glyco (only Thr71 preserved, other 6 sites Ala)”, for which the other entry (O-glycosylation other at T71) is recorded as “increases”.
